Laboratory results from CN116262786A (NANJING RONGJIEKANG BIOTECHNOLOGY CO LTD, dated 2023).

Assays:
[1] = biological target: T1, 人源重组FOLR1蛋白 (人源FOLR1重组胞外结构域蛋白) (human, UniProt P15328 25-233); assay: ELISA, coated FOLR1 1 μg/mL, purified prokaryotic VHH titrated from 2 μg/mL, anti-HA-HRP
T1 construct: range 25-233; a tag is not mentioned; also called FOLR1重组蛋白; 人FOLR1

[2] = biological target: T1, 人源重组FOLR1蛋白 (人源FOLR1重组胞外结构域蛋白); assay: ELISA, coated FOLR1 of each species 1 μg/mL, VHH-hFc titrated from 2 μg/mL, goat anti-human IgG-HRP
[3] = biological target: T2, 小鼠FOLR1 (小鼠 (mouse), UniProt P35846 25-232, limits assumed); assay: as above
T2 construct: also called mouse FOLR1

[4] = biological target: T1, 人源重组FOLR1蛋白 (人源FOLR1重组胞外结构域蛋白); assay: ELISA of crude periplasmic extract on coated FOLR1 recombinant protein, anti-HA-HRP; positive = OD more than 5 times control

T2 sequence (P35846 25-232 limits assumed): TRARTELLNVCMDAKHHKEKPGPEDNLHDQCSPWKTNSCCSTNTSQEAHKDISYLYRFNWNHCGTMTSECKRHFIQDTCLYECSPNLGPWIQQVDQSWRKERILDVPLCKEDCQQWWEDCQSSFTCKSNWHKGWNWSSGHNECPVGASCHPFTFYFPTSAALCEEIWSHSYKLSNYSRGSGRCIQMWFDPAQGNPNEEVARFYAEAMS
T1 sequence (P15328 25-233 limits assumed): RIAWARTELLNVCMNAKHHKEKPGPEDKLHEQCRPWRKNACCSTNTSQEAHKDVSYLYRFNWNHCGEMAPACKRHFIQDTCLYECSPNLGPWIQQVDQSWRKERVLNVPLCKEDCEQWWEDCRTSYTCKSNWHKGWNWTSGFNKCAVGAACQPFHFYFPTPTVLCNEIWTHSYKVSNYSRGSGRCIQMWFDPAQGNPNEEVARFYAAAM

Binder | binding result [1] | binding result [2] | binding result [3] | binding result [4]
单域抗体4B10 (VHH, Prokaryotic (E. coli) VHH from pMECS-VHH; also called VHH14; not shown: tags from vector pMECS (detected with anti-HA, purified on nickel column)) VHH: QVQLVESGGGLVQAGGSLRLSCTASGFTFDDYAMGWFRQAPGKEREGVSCISWNGGSTFYADSVKGRFTIVRDNAKNTVYLEMNSLKPEDTAMYYCAALAYCSGGHWSPGDLSGGYWGQGTQVTVSS | binds | – | – | –
4B10-hFC1 (Fc fusion, human, not shown: a dimerising Fc or GST; small tags and cut ends, domain: Fc区段 (铰链区 Hinge, CH2和CH3区); VHH cloned into vector RJK-V4-hFC; also called VHH-hFc 4B10; 单域抗体4B10的Fc融合抗体) QVQLVESGGGLVQAGGSLRLSCTASGFTFDDYAMGWFRQAPGKEREGVSCISWNGGSTFYADSVKGRFTIVRDNAKNTVYLEMNSLKPEDTAMYYCAALAYCSGGHWSPGDLSGGYWGQGTQVTVSS | – | binds | binds | –
单域抗体3H11 (VHH, Prokaryotic (E. coli) VHH from pMECS-VHH; also called VHH15; not shown: tags from vector pMECS (detected with anti-HA, purified on nickel column)) VHH: QVQLVESGGGSVQTGGSPRLSCAVSGHTYSRLSMGWFRQAPGKEREGVAGIYTGGPSGPMTYYADSVKGRFTISQDNAQRTVYLQMNSLKPEDTAMYYCAATPQFLIGSGLLRPDKYNSWGQGTQVTVSS | binds | – | – | –
3H11-hFC1 (Fc fusion, human, not shown: a dimerising Fc or GST; small tags and cut ends, domain: Fc区段 (铰链区 Hinge, CH2和CH3区); VHH cloned into vector RJK-V4-hFC; also called VHH-hFc 3H11; 单域抗体3H11的Fc融合抗体) QVQLVESGGGSVQTGGSPRLSCAVSGHTYSRLSMGWFRQAPGKEREGVAGIYTGGPSGPMTYYADSVKGRFTISQDNAQRTVYLQMNSLKPEDTAMYYCAATPQFLIGSGLLRPDKYNSWGQGTQVTVSS | – | binds | binds | –
单域抗体1D11 (VHH, Prokaryotic (E. coli) VHH from pMECS-VHH; also called VHH2; not shown: tags from vector pMECS (detected with anti-HA, purified on nickel column)) VHH: QVQLVESGGGSVQAGGSLRLSCAASGDTYSSACMDWFRQAPGKEREGVAGISSGGSTYYADSVKGRFTISRDNAKNTLYLQMNSLKPEDTAMYYCAARRVGRIPCRTMLPGLQDYWGQGTQVTVSS | – | – | – | binds
1D11-hFC1 (Fc fusion, human, not shown: a dimerising Fc or GST; small tags and cut ends, domain: Fc区段 (铰链区 Hinge, CH2和CH3区); VHH cloned into vector RJK-V4-hFC; also called VHH-hFc 1D11; 单域抗体1D11的Fc融合抗体) QVQLVESGGGSVQAGGSLRLSCAASGDTYSSACMDWFRQAPGKEREGVAGISSGGSTYYADSVKGRFTISRDNAKNTLYLQMNSLKPEDTAMYYCAARRVGRIPCRTMLPGLQDYWGQGTQVTVSS | – | binds | binds | –
单域抗体2E5 (VHH, Prokaryotic (E. coli) VHH from pMECS-VHH; also called VHH11; not shown: tags from vector pMECS (detected with anti-HA, purified on nickel column)) VHH: QVQLVESGGGSVQAGGSLRLSCAASGYPYHRVSMGWFRQAPGKEREGVAGIYTGGLYTGGSMTYYADSVKGRFTISQDNARNTVYLQMNSLKPEDTAMYYCAATPQFLIGSGLLRPDKYNSWGQGTQVTVSS | binds | – | – | –
2E5-hFC1 (Fc fusion, human, not shown: a dimerising Fc or GST; small tags and cut ends, domain: Fc区段 (铰链区 Hinge, CH2和CH3区); VHH cloned into vector RJK-V4-hFC; also called VHH-hFc 2E5; 单域抗体2E5的Fc融合抗体) QVQLVESGGGSVQAGGSLRLSCAASGYPYHRVSMGWFRQAPGKEREGVAGIYTGGLYTGGSMTYYADSVKGRFTISQDNARNTVYLQMNSLKPEDTAMYYCAATPQFLIGSGLLRPDKYNSWGQGTQVTVSS | – | binds | binds | –
单域抗体2D8 (VHH, Prokaryotic (E. coli) VHH from pMECS-VHH; also called VHH8; not shown: tags from vector pMECS (detected with anti-HA, purified on nickel column)) VHH: QVQLVESGGGSVQAGGSLRLSCAASDYTYRRYCMGWFRQAPGKEREKVAAIYLGDGTTYYTDSVKGRFTISQENAKNTIYLQMNNLKPEDTAMYYCAADRSGCSVTWSYSAFEDWGQGTQVTVSS | binds | – | – | –
2D8-hFC1 (Fc fusion, human, not shown: a dimerising Fc or GST; small tags and cut ends, domain: Fc区段 (铰链区 Hinge, CH2和CH3区); VHH cloned into vector RJK-V4-hFC; also called VHH-hFc 2D8; 单域抗体2D8的Fc融合抗体) QVQLVESGGGSVQAGGSLRLSCAASDYTYRRYCMGWFRQAPGKEREKVAAIYLGDGTTYYTDSVKGRFTISQENAKNTIYLQMNNLKPEDTAMYYCAADRSGCSVTWSYSAFEDWGQGTQVTVSS | – | binds | binds | –
单域抗体4E11 (VHH, Prokaryotic (E. coli) VHH from pMECS-VHH; also called VHH18; not shown: tags from vector pMECS (detected with anti-HA, purified on nickel column)) VHH: QVQLVESGGGSVQAGGSLRLSCAVSGYTYSSNSMGWFRQAPGKEREGVAAIYTGGGSTYYADSVKGRFTISQDNAKNTVYLQMNSLKPEDTAMYYCAAGGPTWYDGSWSRGDEYTYWGQGTQVTVSS | binds | – | – | –
4E11-hFC1 (Fc fusion, human, not shown: a dimerising Fc or GST; small tags and cut ends, domain: Fc区段 (铰链区 Hinge, CH2和CH3区); VHH cloned into vector RJK-V4-hFC; also called VHH-hFc 4E11; 单域抗体4E11的Fc融合抗体) QVQLVESGGGSVQAGGSLRLSCAVSGYTYSSNSMGWFRQAPGKEREGVAAIYTGGGSTYYADSVKGRFTISQDNAKNTVYLQMNSLKPEDTAMYYCAAGGPTWYDGSWSRGDEYTYWGQGTQVTVSS | – | binds | binds | –
单域抗体3B3 (VHH, Prokaryotic (E. coli) VHH from pMECS-VHH; also called VHH4; not shown: tags from vector pMECS (detected with anti-HA, purified on nickel column)) VHH: QVQLVESGGGSVQAGGSLRLSCAASGYTYRRLSMGWFRQAPGKEREAVGGIYTGESMTYYADSVRGRFTISQDNAQNTVYLQMNSLKPEDTATYYCAATPQFLIGSGLLRPDKYDSWGQGTQVTVSS | binds | – | – | –
3B3-hFC1 (Fc fusion, human, not shown: a dimerising Fc or GST; small tags and cut ends, domain: Fc区段 (铰链区 Hinge, CH2和CH3区); VHH cloned into vector RJK-V4-hFC; also called VHH-hFc 3B3; 单域抗体3B3的Fc融合抗体) QVQLVESGGGSVQAGGSLRLSCAASGYTYRRLSMGWFRQAPGKEREAVGGIYTGESMTYYADSVRGRFTISQDNAQNTVYLQMNSLKPEDTATYYCAATPQFLIGSGLLRPDKYDSWGQGTQVTVSS | – | binds | binds | –
